B1: SIKE1 (recombinant, limits not stated) [human] / SLMAP (recombinant, limits not stated for the experiment) [human] (parent complex)
chain 1: MSCTIEKILTDAKTLLERLREHDAAAESLVDQSAALHRRVAAMREAGTALPDQYQEDASDMKDMSKYKPHILLSQENTQIRDLQQENRELWISLEEHQDALELIMSKYRKQMLQLMVAKKAVDAEPVLKAHQSHSAEIESQIDRICEMGEVMRKAVQVDDDQFCKIQEKLAQLELENKELRELLSISSESLQARKENSMDTASQAIK
chain 2: YSQELFQLSQYLQEALHREQMLEQKLATLQRLLAITQEASDTSWQALIDEDRLLSRLEVMGNQLQACSKNQTEDSLRKELIALQEDKHNYETTAKESLRRVLQEKIEVVRKLSEVERSLSNTEDECTHLKEMNERTQEELRELANKYNGAVNEIKDLSDKLKVAEGKQEEIQQKGQAEKKELQHKIDEMEEKEQELQAKIEALQADNDFTNERLTALQVRLEHLQEKTLKECSSLEHLLSKSGGDCTFIHQFIECQKKLIVEGHLTKAVEETKLSKENQTRAKESDFSDTLSPSKEKSSDDTTDAQMDEQDLNEPLAKVSLLKDDLQGAQSEIEAKQEIQHLRKELIEAQELARTSKQKCFELQALLEEERKAYRNQVEESTKQIQVLQAQLQRLHIDTENLREEKDSEITSTRDELLSARDEILLLHQAAAKVASERDTDIASLQEELKKVRAELERWRKAASEYEKEITSLQNSFQLRCQQCEDQQREEATRLQGELEKLRKEWNALETECHSLKRENVLLSSELQRQEKELHNSQKQSLELTSDLSILQMSRKELENQVGSLKEQHLRDSADLKTLLSKAENQAKDVQKEYEKTQTVLSELKLKFEMTEQEKQSITDELKQCKNNLKLLREKGNNKP

Variants of: B1
Test: BLI; read at the end of association (about 360 s); parent: 0.13; read off a plot

Row | response [nm] | Variant
1 | ~0 | chain 1 L36D
2 | ~0.045 | chain 1 L19D
3 | ~0.045 | chain 1 L15D
4 | ~0.05 | chain 1 M43E
5 | ~0.02 | chain 1 L15D, chain 1 L19D, chain 1 L36D, chain 1 M43E

From PMC6323126 (2019)
